In article doi:10.1101/286310, “Dynamics of human protein kinases linked to drug selectivity” (bioRxiv, 2018):

Target: the molecule itself
Assay: crystal structure; co-crystallised: 240 uM deP Aurora A 122-403 + 1.0 mM AT9283 + 250 uM Mb; sitting drop, 18 °C; 0.1 M Bis-Tris pH 5.5, 0.2 M magnesium chloride, 19% (w/v) PEG-3350

B1: dephosphorylated Aurora A (122-403) (domain or fragment, human, UniProt O14965 122-403, looked up)
chain: ESKKRQWALEDFEIGRPLGKGKFGNVYLAREKQSKFILALKVLFKAQLEKAGVEHQLRREVEIQSHLRHPNILRLYGYFHDATRVYLILEYAPLGTVYRELQKLSKFDEQRTATYITELANALSYCHSKRVIHRDIKPENLLLGSAGELKIADFGWSVHAPSSRRTTLCGTLDYLPPEMIEGRMHDEKVDLWSLGVLCYEFLVGKPPFEANTYQETYKRISRVEFTFPDFVTEGARDLISRLLKHNPSQRPMLREVLEHPWITANSSKPSNCQNKESASKQS
notes: Aurora A kinase (Ser/Thr kinase), residues 122-403, dephosphorylated; also called AurA; deP Aurora A^122-403; source: expressed and purified as described before (Zorba et al., 2014); dephosphorylated state confirmed by mass spectrometry
binding result: binds
